According to the DeepSol protein solubility set:

Experiment: soluble on expression in E. coli; label from the status in PepcDB or PDB records

Soluble on expression in E. coli, not soluble:
MGSDKIHHHHHHMTLPATITHQEKLLTVDTTAHPFLKALGGHEGTDIFPLFMDPYNGLMVMRASFAPGLTLPLHFHTGTVHMYTISGCWYYTEYPGQKQTAGCYLYEPGGSIHQFNTPRDNEGQTEVIFMLSGCNVNFTQDGTYLGLSDAGVIKNWVDRAIREQDNGLRYIAAAVPTYAA, MGSDKIHHHHHHMTLWQPDPALIRRPAYQSLADQFARAIHDGRLANGARLPTHRRLADDLNLSVQTVSRAYEELIRRGLISGEIGRGSFVQTQRREPEPPYLPERLGEVIDLSILKPVCEPMHLERLKQALGWLAENLPSSSALSFRPNMVFPRHRAVAVEWLKLCGLDISAQNISLTNGATAGMTVALMSVAPPGSTVATEAIGHHTLVPLARYLGFNLQGLPIDDNGLIPEALDEACRLSDIRAVFVQPSVINPTATLMDAQRREQIAAVARKHDIAIIENDVLGPLVEDRPPPVAAFAPERTLYVTSFTKITVPGLRIGYLAAPDRYVAAVANRHLVSNWMATPLVAEIATKWVTDGTAMELVLWQRAALRRRQDIAAEVLARIDYRARRDGLHIWLQLPDDRAEEGFVAQARLQGVAIAPGTSFRISDAPWHPAVRISLGSTTEGELRAGLGVVTKLLLGDPEHLLLAI, MGSDKIHHHHHHMTNIAILGTASDVGKSIVATALCRIFSNAGVDVAPYKAQNMSNNSGVTPDGFEMGRAQIVQAQAARVAPHADMNPVLLKPNTDTGAQVVLQGKVCADKSAREYFGDTQRWAEAAFESLDRLMVRHELLVIEGAGSCAEMNLYQRDFVNFKTARRAGAAVILVADIDRGGVFAQVVGTLAVIPPEDRALVKGVIINRFRGDKSLFEGGVKMLESMTGVPVLGVIPYFRGFTIDAEDAVPLSSVVDPKQEPSGDKIGVAAIYFPHISNFTDLAPLERDPSVELHYLHRPKSLDGYKALILPGSKNVRGDLAWLETMGWRDEIEKFRKRGGIIVGLCGGYQMLGASIADPYGVEGAPGASAGLAMLPVETVLEREKALCNSVGKIAGTPFFVSGYEIHMGRTALEPGASPLLEVTERNGVATDDFDGAKSADGQVTGTYFHGFFDRPEVRTWFLRLLDGGYESPRGASVADPFELLAKHFSENLDLEKLFAIAGLSVKGEKES, MGSDKIHHHHHHMTNTLKTSYQKTPYKLGGNGPRNVGVLTEALQNIDDNSESDIYGNGAVIENFETKIAKILGKQSAVFFPSGTMAQQIALRIWADRKENRCVAYHPLSHLEIHEQDGLKELQQITPILLGTANRLLTIDDIKSLREPVSSVLIELPQREIGGQLPSFEELEEISEYCHEQGISLHLDGARLWEIMPFYQKSAEDICSLFDSVYVSFYKGIGGIAGAILAGNADFVQEAKIWKRRYGGDLISLYPYILSADYYFEKRIGKMAEYFEAAKGLAERFNSCPGLKTVPEVPISNMFHVYFEKSADEVGTILTKIQDETGVGISGYLQEKSADVCAFEVSVGDAFAEIPTKDLESAFECLEKELRL, MGSDKIHHHHHHMTPEKIEQIFRSFKEKKIAVIGDVMIDKYIFGHVSRISPEYPVPVVDVNRESSRLGGAANVAVNIHALGAEALLIGVTGDDTERRNLEALMTEHGLNPAMLAADSTRPTTCKTRILSQNHHITRVDYESRTPVDAELEKRLLGMFMEIANAVDAVVLEDYNKGVLTPSLIVSLIAACRERNKPVLVDPKLKGFFSYGGCSVFKPNLSELAASLGIPVANDDREVEQACLLLGEKLTVESLVVTRSEKGMTVYDGSFTHIPALSLDVADVSGAGDTVIGTLALGLASGLDLVTSTRIANLAANTVCQEVGAVPVRPDKLFSACLAHLQ, MGSDKIHHHHHHMTPSNVNSAGYKVIKISEFLSKKEYLDKKLVIPVYQRPYRWTAKNIVDLLSDLYYQCKRIGHRLGSPDNPDNFYRLGTVVLHQYVNNGSHQTNADLVDGQQRTLTLLLIMKSALESNRFTEQFNSFTPLEIELPDCSETQQNLSRNYELIRRHVNSPEFTSEVLDFLLNHCEVVQVTLHYLSEAFQFFDSQNARGLDLNPHDLLKAFHLREFPDSESLLKQNIVECWEQQNTKSLEVLFANYLYPIRRWSFGKQAVHFSKSEVNVFKGMKLDSDSYPFQENLRIVHNTVDSYNHHSHRLLDQQAMAYPFQLTQTLINGRRFFEWVTHYQEMIQPLLNKTIDSDSQKWLYTITSCHHTETGTSIKEVAKRPTAFNIFLVLNTDLPEYSYKGRSRRGDQYVRRMFDALVLCYYDRFGSHNLPRAIEYIFIWAYSLRLEKKSVYLESIEKHIGTDNLFERLQQSLSSVDFLSKPLPQPKKVDVTNVEGIKELFTKLGYLPT, MGSDKIHHHHHHMTQLKTLPIYDPTLFEGAAEVYAQYRTKYPPAVFDKLTEIFNLNGQGRLLDLGTGPGLIAIPLSTKFQEVVAIDPDPEMLKEAQRQAATAGANNITWLEQGAELINPSLGVFKLATIGRAFHWMERQLVLERLYELLADDGAIALLNTGDDPWKSPLPWKQAAIGVVKKWLGEERRTGQRGQGIRKPVDPPHEVVIANSKFARQEVHEVTFEKSWTVSSYLGYLYTTAFSLKIFYGDKAEEFEADIKDALLAVEPSGHFTEELKATIQVVWKH, MGSDKIHHHHHHMTQNTPLFSMESVSVRHNSVPALDAVSWTLHRGAHCAVLGGNGAGKSTLLRLAAGAIRPDQHDGGTVLWFPRGSAEDSPIAVRTHCGLVSAEQQEHYLRRSWRITGEEIVLSGYFGTDMLYRPAGTAQRHAAARLAKALDAEHLMPVMLEAMSQGQLRKILLARAMVHSPQLLLLDEVCEGLDAAARREMLAAIDRAAALGTTVLMSGHRAGQFPDCIRQAVLLRQGRLVFTGGLHQALHLMRTTHQPLPAGASDTAAGQCSCCTPPPACAGAAPVVEIEHADVYLGRTPVLHDITWSILPGQNWVVRGPNGAGKSTLLRLLYGDQRQAWGGIVRWFGMAGPVPLEEVRRNVALVSDRVQALYGHDGYHSTRLELNGEELVHTGFYDSTGLWGKTPDAQQHAAALRWMDRLGIAALAGTDIRRMSYGTLRRFMLARALVRDPQLLILDEPLSGLDESARRIMLTTLSALMRSGRQLVLVTHHQEDIQPETTHELHLNAGRITYCGPVCPAGDTL, MGSDKIHHHHHHMTQQTDLQSKTNIDPLAMNDSFLAAADALAVDPMFGIPANVREVIARRGNATRLVILGTKGFGAHLMNVRHERPCEVIAAVDDFRYHSGELYYGLPIISTDRFTELATHDRDLVALNTCRYDGPKRFFDQICRTHGIPHLNFEQAVRAFGLQGNVDYRVDDWGADIVRNIPAFQTLAQRLADDYSVQTLYAVLNFHLTCEPEYYHEVERPYSTLYFRSGLLRFSDSEKMVDCGASIGESLAGLIGVTKGKFERVWMIEPDRINLQTLQNVLRRYTDTNFASRITVHGCGAGENTIRVPFNHEGGHGGFVKPADADHEPADLIDVRPIDDIIDDAPTFIKMDIEGSELSALKGARRAISEHKPKLAISAYHRSTDLLDLTNYILSIRPDYQIGLRHHTPDRWDTCLYFY, MGSDKIHHHHHHMTQYEVDIMYEVKLDAFNGPLDLLLHLIQKFEIDIYDIPMQALTEQYMQYVHAMKQLEINIASEYLVLASELLMIKSKMLLPQSTSDMDVDDDPREDLVGRLIEYQNYKEYTAILNDMKEERDFYFTKRPTDLSHLETDESWDPNHTIDLTELIVAYQRVKNRVELNTPKSVEIRKETFTIQQATEQVTSRLKDKDHFNFFSLFTFSEPIEQVVTHFLAILEMSKAGIINIEQQRNFEDINIIRGVNYHFG, MGSDKIHHHHHHMTRLAIVRQKYNPAGGAERFVSRALAALRDKGELEVSLIARRWEPVEGVKAYQVDGPYLGNVWRDWSFARKARRIWLREGFDLVQSHERIPGCDVYRAGDGVHRRWLQLRRQGMSAWGRFVLWCNPYHHYIQRAESEMFHHPRLKRVICNSQMVKREIQQYFGLSDQQIVVIYNGVDLQSFHPGLRSEHRQAMRSQWGVPGDAPLLLYVGSGFERKGVARALKALQANPGAWLMVVGGDKRLARYRRLADELGVDARVVFAGAQGEVRPFYGMADAFILPTLYDPFPNVCVEALASGLPVLTTRQCGAAEFVRQGENGWVCDAFDEEALARSVAEWLSVSRNWPVLAEAARRSVEGLSLGAMAERMLNCYRDLLSVSAVA, MGSDKIHHHHHHMTRTEHEISFGPYTAVATTRGGALRELRHEGRDLVVGFAADGEIPDYRGVICAPWPNRLAGGRYSFEGKDYQAVVNEEQRGTALHGLVFGAVWELLEHTASSVRLGTRIEPGDGYPGRLDVSVDYELRADGLHSTVRARNVGVEAAPYGACPHPYLIAGPAPLDEWSVQIPATEFMEVSADRLLPEGMAGVEGHAFDFRTEKVLGSVQIDHAFTGLIPNADGLAAVRVHDPSGTGVELEWDATWPWLQIHTADKPSGPTRLGLAVEPMTCPPDAFNSGTDVLRLAPGESHEASWTIRALSR, MGSDKIHHHHHHMTSANIQMAVYCFDVINAQLNREKEPPVPKEIPNVKLPLFVTWKKGHQHDLRGCIGTFSDLRLGEGLNEYAKTSAFHDSRFKPISREEVPSLQCGVSLLINFEPIHNFRDWTIGRHGVRMNFDDGHRNRSAVFLPEVAQEQGWNHVETIDHLIRKSGYGGHINDALRSALRIVRFQSSKLVLDYKDYVNYKQSHGLPLPR, MGSDKIHHHHHHMTSKINKIVNGPIPDSFLFDESKRLDSLKFDGTNLEVLDQLLLPHEFKYIPVEGVSDAFAVIKSMQVRGAPLIAVVGSLGLLLEIQKASELDSESIIQKINFLISSRPTAVDLRNSLNGLKPILESQDYSDVVKLEKCRSYLLNVYTDEKLQNRILVWNAYQELLSAFPDKEKLTVMTICNTGSLATISWGTALGVIRALHSENRLKLVYVLETRPYNQGIRLTSIELLHGEVPFKLITDSMAAWAMKNHQVDCVLTGADNVARNGDTANKIGTYMLAVLCKHHNINFYPVVPFTTINKNIATGEEIKIEERPSAEMLRVNGVLIGNSECPVWNPAFDVTPAHLITKILTDFGNWPPEMLEQQIPK, MGSDKIHHHHHHMTSQKYQSKTLKIAVVGDIHDQWEVEDGMALKHLGVDLVLFVGDFGNESVEVVRAIASLNIPKAAVMGNHDAWYTATEWGRKKCPYDRTKEDWVQEQLDLLGSAHVGYGKLDFPEWNLTVVGGRPFSWGGHEWRFADICKDRYGVTTLEESAQRIFASVKSAACETIIFLGHNGPSGLGDRPEDPCGKDWHPIGGDFGDPDLAEAISLTMTTGKQIALVTFGHMHHSLRHTKKELRKPIFKSPEGIVYLNAASVPRIVEGESGKLRNFSLVSLEAGEVTQASLIWVGEDFQVAKEEIFYERSTSVVPSV, MGSDKIHHHHHHMTSRTPLVSVLPDFPWDSLASAKAKAASHPDGIVNLSVGTPVDPVAPSIQIALAEAAGFSGYPQTIGTPELRAAIRGALERRYNMTKLVDASLLPVVGTKEAIALLPFALGISGTVVIPEIAYPTYEVAVVAAGCTVLRSDSLFKLGPQIPSMMFINSPSNPTGKVLGIPHLRKVVKWAQENNVILAADECYLGLGWDDENPPISILDPRVCDGDHTNLIAIHSLSKTSNLASYRAGYLVGDPALIGELTEVRKNLGLMVPFPIQQAMIAALNDDDQEAGQKLTYAIRRAKLMRALLESGFQVDNSEAGLYLWATREEPCRDTVDWFAERGILVAPGDFYGPRGAQHVRVAMTETDERVDAFVSRLS, MGSDKIHHHHHHMTTHSHTLTIAGQPLHYTDQGQGNTLVFIHGLLGNKVQWQSQIDALKANYRCIAIDLWGHGDSQTMPENTANLKDIASQLLSMLTALNINSCSLISLGTGCAIASEMALLSPKNINALVMINGFIGFEPEVNCVKYQGMLDEVQLNNGISTALAKQIATLFFNTQAQKTAVKTDTVTNAVTNEIESASVDSQISDKAMAALAQQLTEINAVQLSALVKFVPMAIYKRDTLEDVERFCLPSLILASNNNKLRTPLEAYLMQDTLDGSQLTQIPNAGHWVHLEQAEQLKQLISQFLQQH
